We go through two molecules from paper doi:10.1101/2024.03.18.585568 (bioRxiv, 2024).

For assay [1], the target named is T1, apoGAD65 (glutamate decarboxylase GAD65, residues 84-585, purified without added PLP) (human, UniProt Q05329). Description: HDX-MS.
The target in assay [2] is T1, apoGAD65 (glutamate decarboxylase …). Description: SPR.

T1 sequence (Q05329 84-585): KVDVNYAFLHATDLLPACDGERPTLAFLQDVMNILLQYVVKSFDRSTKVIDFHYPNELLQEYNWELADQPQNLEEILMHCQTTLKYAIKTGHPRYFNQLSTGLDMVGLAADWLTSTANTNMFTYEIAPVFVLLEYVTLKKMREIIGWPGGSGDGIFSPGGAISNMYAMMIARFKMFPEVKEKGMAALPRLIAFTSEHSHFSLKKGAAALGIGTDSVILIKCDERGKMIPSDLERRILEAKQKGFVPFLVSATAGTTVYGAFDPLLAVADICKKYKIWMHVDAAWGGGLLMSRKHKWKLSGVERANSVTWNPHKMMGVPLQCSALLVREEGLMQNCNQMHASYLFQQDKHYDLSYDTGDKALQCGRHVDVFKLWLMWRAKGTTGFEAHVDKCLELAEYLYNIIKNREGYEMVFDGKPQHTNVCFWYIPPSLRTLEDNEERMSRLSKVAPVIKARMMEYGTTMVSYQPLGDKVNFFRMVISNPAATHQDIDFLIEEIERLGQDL

B1: b96.11 Fab (recombinant Fab based on the human APS-2-associated autoantibody b96.11) (Fab, V domains shown)
VH: EVQLVESGGGLVQPGRSLRLSCSASGFTFGDYAMSWFRLAPGKGLEWVGLIKSRAIDGTPQYAASVKGRFTISRDDSNSIAYLQMNSLTTEDTAIYYCARDFYDFWNEFSHRTFDFWGQGTLVTVSS
VL: QSALTQPASASGSPGQSVTITCTGSSSDVGGYKYVSWYQHHPGKAPKLMIYEVSKRPSGVPDRFSGSKSGNMASLTVSGLQAEDEADYYCSSYAGSYNFYVFGNGTKVTVL
B1: the binding result in assay [1] is “binds”.

B2: b96.11 IgG (purified monoclonal b96.11 IgG antibody) (antibody, V domains shown)
VH: B1 VH
VL: B1 VL
As to B2, the binding result in assay [2] is recorded as “binds”.
